Laboratory results taken from patent US20260007756A1, “COMPOUND AND USE THEREOF” (COHERENT BIOPHARMA (SUZHOU) LIMITED, priority 2022, published 2026).
Converted amounts (≈) assume the structure as drawn. Like-named read-outs stand apart in the source and are kept apart here. Values belong to the compound of their own block, whether it stands above or below them.

Tests used:
SK-OV-3 = experiment: Expansion inhibition of tumor cells (Example 10, CCK-8); format: cell-based; conditions: Homo sapiens, SK-OV-3 (FOLR1 overexpression), 72 h
Method: Samples were serially diluted with medium (serially 5-fold diluted from 10 μM) to 9 concentrations. […] Negative and blank controls were set.
A CCK-8 developing solution was added at 10 μL/well (10% of the liquid volume in the wells). The plates were incubated at 37° C. for a proper time (the OD value was controlled within the range of 1.0-2.5 as possible). The plate covers were removed, and the 96-well plates were loaded on a microplate reader (Molecular Devices SpectraMax iD5) to read the measurement at 450 nm.

C4-2 = conditions: C4-2, 72 h, CellTiter-Glo
Method: Cells were prepared in advance, trypsinized, collected, counted, diluted to 1.5×10^4 cells/mL in a complete cell culture medium, and plated in 96-well plates. The diluted cell suspension was added at 100 μL/well, and negative and blank control wells were set on each plate. The 96-well plates with the added cells were incubated overnight at 37° C. in a 5% CO2 incubator.
Samples were serially diluted with medium (serially 3-fold diluted from 10 μM) to 9 concentrations. The medium in the plates was discarded, and the drug solutions were added at 100 μL per well to a 96-well plate in triplicate. Negative and blank controls were set. The plates were incubated at 37° C. for 72 h in a 5% CO2 incubator.
The CellTiter-Glo buffer was thawed and warmed to room temperature, and the CellTiter-Glo substrate was warmed to room temperature. The CellTiter-Glo buffer was added to the flask containing CellTiter-Glo substrate to dissolve the substrate, thereby preparing a CellTiter-Glo working solution, which was then vortexed slowly to complete dissolution. The cell culture plates were equilibrated at room temperature for 30 min, before the CellTiter-Glo working solution was added at 50 μL/well (about half the volume of cell culture medium in each well). The plate was covered by aluminum foil to keep out of light. The culture plate was shaken on an orbital shaker for 2 min to induce cell lysis. The culture plate was left to stand at room temperature for 10 min to stabilize the luminescence signals. The luminescence signal was detected on a microplate reader (Molecular Devices SpectraMax iD5).
Four-parameter curves were fitted using GraphPad Prism 8.0.2 to give IC50 values.

Solubility study in PBS = format: physicochemical; conditions: aqueous buffer, thermodynamic from solid; PBS (pH 7.2 to 7.4); read-out: Solubility, concentration
Method: The mixture was vortexed for 2 min until the solid was dissolved. The solubility was calculated as: C=m/V, C: concentration, m: sample weight, V: PBS total volume.

BRD4 = molecular target: T1, BRD4 (Homo sapiens, UniProt O60885); experiment: Target protein degradation activity, Western Blot; format: cell-based
T1 construct: endogenous in cells; host or cells: MDA-MB-231, 22RV1
Method: Information on cell lines: MDA-MB-231 (human breast cancer cell) and 22RV1 (human prostate cancer cell)
• 1) A proper amount of RIPA lysis buffer was added to the Protease Inhibitor Cocktail (1:100) a few minutes before use. • 2) The medium of the cells was discarded. The cells were collected by cell scraper, centrifuged, and washed twice with pre-cooled PBS. The lysis buffer was added at 300 μL per dish. The centrifuge tube was placed on ice and mixed by pipetting for 5 min to allow the lysis buffer to fully contact the cells. • 3) After 30 min of lysis, the lysate was collected, transferred to a centrifuge tube, and centrifuged for 15 min at 12000×g to pelletize the cell debris. • 4) The supernatant was transferred to a new centrifuge tube, for subsequent Western Blot. […]
The antibody marked by HRP was coupled with an enhanced chemiluminescence reagent for chromogenesis, and the exposure was conducted via an X-ray film. The positions of the antigen-antibody (primary antibody)-antibody (secondary antibody) complex on the nitrocellulose membrane were determined by means of development, washing, and fixation. […]

Plasma stability study 2 = format: in vitro ADME; conditions: mouse plasma, 37° C.
Method: • 1) The conjugate compounds were prepared into 1 mg/mL stock solutions with 0.1% TFA-acetonitrile water (1:1); • 2) 10 μL of 1 mg/mL compound stock solution was added into 90 μL of fresh plasma, and the mixture was well mixed by gentle shaking, and transferred to a thermostatic incubator at 37° C. for 0 h, 0.5 h, 1 h, 2 h, 4 h, 6 h, or 24 h of incubation; • 3) at the time points, samples were taken out and 300 μL of methanol solution (containing 10 ng/ml of terfenadine) was added for protein precipitation; • 4) the mixture was centrifuged (13 min, 4° C., 12000 rpm) and the supernatant was collected, and preserved in a −80° C. refrigerator; after collection, the samples were loaded for LC-MS analysis.

β-glucosidase = conditions: PBS pH 6.8, 25° C.
Method: • 1) CR202AL was formulated into a 500 μg/mL stock solution with PBS (pH 6.8); • 2) 100 μL of 500 μg/mL compound stock solution was added to 775 μL of PBS (pH=6.8) before 125 μL of 100 U/mL β-glucosidase was added, and the mixture was well mixed by gentle shaking. • 3) The cleavage reaction system in step 2) was transferred to a thermostatic incubator at 25° C. for 0 h, 1 h, 2 h, 4 h, or 24 h of incubation. Samples were taken and loaded at various time points for LC-MS analysis.

MDA-MB-231 = format: cell-based, human; conditions: MDA-MB-231, 72 h, CellTiter-Glo
Source text: (§1) Negative and blank controls were set.

22RV1 = format: cell-based, human; conditions: 22RV1, 72 h, CellTiter-Glo
Source text: as §1

- IC50 (SK-OV-3): 31.5 nM
SMILES: Cc1ncsc1-c1ccc(CNC(=O)C2CC(O)CN2C(=O)C(NC(=O)COCCOCC(=O)NC2(C(=O)NCCCn3cc(-c4ccc(OC(F)(F)F)cc4)c4cc(CN5CCN(Cc6c(Cl)cccc6Cl)CC5)ccc43)CCNCC2)C(C)(C)C)cc1 (centres unmarked) [CR202CF]

- IC50 (SK-OV-3): 0.3 nM
SMILES: Cc1ncsc1-c1ccc(CNC(=O)C2CC(O)CN2C(=O)C(NC(=O)COCCOCCOCC(=O)NC2(C(=O)NCCCn3cc(-c4ccc(OC(F)(F)F)cc4)c4cc(CN5CCN(Cc6c(Cl)cccc6Cl)CC5)ccc43)CCNCC2)C(C)(C)C)cc1 (centres unmarked) [CR202CI]

SMILES: CC[C@@H]1C(=O)N(C)c2cnc(Nc3ccc(-c4cn([C@H]5CC[C@@H](N(CCOCCC#Cc6cccc7c6CN(C6CCC(=O)NC6=O)C7=O)C(=O)OCc6ccc(O[C@@H]7O[C@H](C(=O)O)[C@@H](O)[C@H](O)[C@H]7O)c(NC(=O)CCNC(=O)COCCOCCn7cc(C[C@H](NC(=O)[C@H](CCCCN)NC(=O)[C@H](CC(=O)O)NC(=O)[C@H](CC(=O)O)NC(=O)Cc8ccc(CNC(=O)NCCCC[C@H](NC(=O)N[C@@H](CCC(=O)O)C(=O)O)C(=O)O)cc8)C(=O)N[C@@H](CCCCNC(=O)CC[C@H](NC(=O)c8ccc(NCc9cnc%10[nH]c(N)nc(=O)c%10n9)cc8)C(=O)O)C(N)=O)nn7)c6)CC5)nn4)cc3OC)nc2N1C1CCCC1 (some centres unmarked) [CR202AL]
- IC50 (C4-2): 0.5 nM
- solubility at 2 min (Solubility study in PBS): 5700 µg/mL (≈ 1910 µM)
- Degradation of BRD4 (Western Blot) (BRD4; 3 nM over 6 h): almost completely degrading
- Degradation of BRD4 (Western Blot) (BRD4; at 24 h (FIG. 4B)): still retain strong degradation activity
- CR20274 release rate (actual release/theoretical release) (Plasma stability study 2; 0 h): 0.01%
- Residual rate of principal component (Plasma stability study 2; 0 h): 76.04%
- CR20274 release rate (actual release/theoretical release) (Plasma stability study 2; 0.5 h): 0.47%
- remaining at 0.5 h, 100 μg/mL (Plasma stability study 2; 0.5 h, read-out: Residual rate of principal component): 69.8%
- CR20274 release rate (actual release/theoretical release) (Plasma stability study 2; 1 h): 0.86%
- remaining at 1 h, 100 μg/mL (Plasma stability study 2; 1 h, read-out: Residual rate of principal component): 78.1%
- CR20274 release rate (actual release/theoretical release) (Plasma stability study 2; 2 h): 0.96%
- remaining at 2 h, 100 μg/mL (Plasma stability study 2; 2 h, read-out: Residual rate of principal component): 75.6%
- CR20274 release rate (actual release/theoretical release) (Plasma stability study 2; 4 h): 2.60%
- remaining at 4 h, 100 μg/mL (Plasma stability study 2; 4 h, read-out: Residual rate of principal component): 74.9%
- CR20274 release rate (actual release/theoretical release) (Plasma stability study 2; 6 h): 3.69%
- remaining at 6 h, 100 μg/mL (Plasma stability study 2; 6 h, read-out: Residual rate of principal component): 57.1%
- CR20274 release rate (actual release/theoretical release) (Plasma stability study 2; 24 h): 28.17%
- Residual rate of principal component (Plasma stability study 2; 24 h): 1.20%
- CR20274 release rate of CR202AL after cleavage (β-glucosidase; 0 h): 5.16%
- Principal component residue of CR202AL after cleavage (β-glucosidase; 0 h): 100.00%
- CR20274 release rate of CR202AL after cleavage (β-glucosidase; 1 h): 107.33%
- Principal component residue of CR202AL after cleavage (β-glucosidase; 1 h): 26.70%
- CR20274 release rate of CR202AL after cleavage (β-glucosidase; 2 h): 146.03%
- Principal component residue of CR202AL after cleavage (β-glucosidase; 2 h): 9.75%
- CR20274 release rate of CR202AL after cleavage (β-glucosidase; 4 h): 146.54%
- Principal component residue of CR202AL after cleavage (β-glucosidase; 4 h): 4.87%
- CR20274 release rate of CR202AL after cleavage (β-glucosidase; 24 h): 100.80%
- Principal component residue of CR202AL after cleavage (β-glucosidase; 24 h): 0.00%
- IC50 (MDA-MB-231): 2.5 nM
- IC50 (22RV1): 6.3 nM
